Patent US20030171565

T1: protein zero related (PZR), tyrosine-phosphorylated
T1 chain: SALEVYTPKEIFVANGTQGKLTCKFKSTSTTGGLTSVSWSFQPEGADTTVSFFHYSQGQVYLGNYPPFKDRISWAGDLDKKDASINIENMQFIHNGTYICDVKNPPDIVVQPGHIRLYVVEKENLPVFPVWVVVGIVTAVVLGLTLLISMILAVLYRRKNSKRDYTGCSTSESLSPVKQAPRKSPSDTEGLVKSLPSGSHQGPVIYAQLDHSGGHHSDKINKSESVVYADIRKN

B1: SH2 domain-truncated form of SHP-2 (protein)
chain: NPMVETLGTVLQLKQPLNTTRINAAEIESRVRELSKLAETTDKVKQGFWEEFETLQQQECKLLYSRKEGQRQENKNKNRYKNILPFDHTRVVLHDGDPNEPVSDYINANIIMPEFETKCNNSKPKKSYIATQGCLQNTVNDFWRMVFQENSRVIVMTTKEVERGKSKCVKYWPDEYALKEYGVMRVRNVKESAAHDYTLRELKLSKVGQGNTERTVWQYHFRTWPDHGVPSDPGGVLDFLEEVHHKQESIMDAGPVVVHCSAGIGRTGTFIVIDILIDIIREKGVDCDIDVPKTIQMVRSQRSGMVQTEAQYRFIYMAVQHYIETLQRRIEEEQKSKRKGHEYTNIKYSLADQTSGDQSPLPPCTPTPPCAEMREDSARVYENVGLMQQQKSFR
B2: tyrosine phosphatase SHP-2, native full-length form (protein)
chain: TSRRWFHPNITGVEAENLLLTRGVDGSFLARPSKSNPGDFTLSVRRNGAVTHIKIQNTGDYYDLYGGEKFATLAELVQYYMEHHGQLKEKNGDVIELKYPLNCADPTSERWFHGHLSGKEAEKLLTEKGKHGSFLVRESQSHPGDFVLSVRTGDDKGESNDGKSKVTHVMIRCQELKYDVGGGERFDSLTDLVEHYKKNPMVETLGTVLQLKQPLNTTRINAAEIESRVRELSKLAETTDKVKQGFWEEFETLQQQECKLLYSRKEGQRQENKNKNRYKNILPFDHTRVVLHDGDPNEPVSDYINANIIMPEFETKCNNSKPKKSYIATQGCLQNTVNDFWRMVFQENSRVIVMTTKEVERGKSKCVKYWPDEYALKEYGVMRVRNVKESAAHDYTLRELKLSKVGQGNTERTVWQYHFRTWPDHGVPSDPGGVLDFLEEVHHKQESIMDAGPVVVHCSAGIGRTGTFIVIDILIDIIREKGVDCDIDVPKTIQMVRSQRSGMVQTEAQYRFIYMAVQHYIETLQRRIEEEQKSKRKGHEYTNIKYSLADQTSGDQSPLPPCTPTPPCAEMREDSARVYENVGLMQQQKSFR

Biological target: T1, protein zero related (PZR), …

Row | Protein | in vitro dephosphorylation of immuno-purified tyrosine-phosphorylated PZR (anti-phosphotyrosine Western blot) | dephosphorylation of purified p43 in vitro (anti-phosphotyrosine Western blot) | in vitro dephosphorylation of immuno-purified tyrosine-phosphorylated PZR
1 | B1 | the truncated enzyme had essentially no effect | – | –
2 | B2 | full length SHP-2 caused rapid dephosphorylation | SHP-2 caused complete dephosphorylation of p43 | higher concentrations of SHP-2 (up to 5 µg/ml) helped to push the dephosphorylation to near completion
